The record followed here is patent US20240376455.

Common to all, as to assay: cleavage_in_vitro
For data set [1], the system named is T1, LPG10146 (Bifidobacterium thermacidophilum).
T1 sequence: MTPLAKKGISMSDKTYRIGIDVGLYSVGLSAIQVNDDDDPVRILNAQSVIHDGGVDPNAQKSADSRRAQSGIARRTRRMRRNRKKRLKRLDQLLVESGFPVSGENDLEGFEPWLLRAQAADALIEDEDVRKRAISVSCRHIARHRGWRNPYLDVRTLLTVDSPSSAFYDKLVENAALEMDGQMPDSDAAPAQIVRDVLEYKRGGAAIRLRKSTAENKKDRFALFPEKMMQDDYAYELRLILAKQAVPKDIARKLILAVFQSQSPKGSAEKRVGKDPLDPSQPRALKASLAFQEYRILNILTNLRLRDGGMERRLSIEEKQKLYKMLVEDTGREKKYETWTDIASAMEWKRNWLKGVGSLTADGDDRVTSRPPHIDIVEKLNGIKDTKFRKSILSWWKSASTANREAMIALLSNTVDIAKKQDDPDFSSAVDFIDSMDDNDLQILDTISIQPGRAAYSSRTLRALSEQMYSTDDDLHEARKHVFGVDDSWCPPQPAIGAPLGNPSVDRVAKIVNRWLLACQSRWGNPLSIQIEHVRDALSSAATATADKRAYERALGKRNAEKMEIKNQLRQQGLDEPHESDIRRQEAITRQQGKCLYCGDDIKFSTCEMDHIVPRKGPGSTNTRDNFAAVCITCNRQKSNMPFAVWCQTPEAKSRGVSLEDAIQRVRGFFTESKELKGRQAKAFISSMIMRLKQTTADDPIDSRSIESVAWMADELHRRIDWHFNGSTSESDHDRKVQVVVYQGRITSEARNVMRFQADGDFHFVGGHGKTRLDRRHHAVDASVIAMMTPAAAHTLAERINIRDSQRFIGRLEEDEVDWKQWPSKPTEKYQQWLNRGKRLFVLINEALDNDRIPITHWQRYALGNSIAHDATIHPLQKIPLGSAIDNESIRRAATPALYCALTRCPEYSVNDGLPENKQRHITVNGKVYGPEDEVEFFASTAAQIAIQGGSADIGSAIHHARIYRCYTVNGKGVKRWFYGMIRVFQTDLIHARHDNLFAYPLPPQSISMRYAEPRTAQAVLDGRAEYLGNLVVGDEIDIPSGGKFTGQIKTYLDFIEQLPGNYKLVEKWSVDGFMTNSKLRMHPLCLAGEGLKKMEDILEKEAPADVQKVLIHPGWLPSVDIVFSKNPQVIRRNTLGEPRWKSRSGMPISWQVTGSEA
The following applies: PAM SEQ ID 79.

The test system of data set [2] is T2, LPG10138 (Bacillus megaterium).
T2 sequence: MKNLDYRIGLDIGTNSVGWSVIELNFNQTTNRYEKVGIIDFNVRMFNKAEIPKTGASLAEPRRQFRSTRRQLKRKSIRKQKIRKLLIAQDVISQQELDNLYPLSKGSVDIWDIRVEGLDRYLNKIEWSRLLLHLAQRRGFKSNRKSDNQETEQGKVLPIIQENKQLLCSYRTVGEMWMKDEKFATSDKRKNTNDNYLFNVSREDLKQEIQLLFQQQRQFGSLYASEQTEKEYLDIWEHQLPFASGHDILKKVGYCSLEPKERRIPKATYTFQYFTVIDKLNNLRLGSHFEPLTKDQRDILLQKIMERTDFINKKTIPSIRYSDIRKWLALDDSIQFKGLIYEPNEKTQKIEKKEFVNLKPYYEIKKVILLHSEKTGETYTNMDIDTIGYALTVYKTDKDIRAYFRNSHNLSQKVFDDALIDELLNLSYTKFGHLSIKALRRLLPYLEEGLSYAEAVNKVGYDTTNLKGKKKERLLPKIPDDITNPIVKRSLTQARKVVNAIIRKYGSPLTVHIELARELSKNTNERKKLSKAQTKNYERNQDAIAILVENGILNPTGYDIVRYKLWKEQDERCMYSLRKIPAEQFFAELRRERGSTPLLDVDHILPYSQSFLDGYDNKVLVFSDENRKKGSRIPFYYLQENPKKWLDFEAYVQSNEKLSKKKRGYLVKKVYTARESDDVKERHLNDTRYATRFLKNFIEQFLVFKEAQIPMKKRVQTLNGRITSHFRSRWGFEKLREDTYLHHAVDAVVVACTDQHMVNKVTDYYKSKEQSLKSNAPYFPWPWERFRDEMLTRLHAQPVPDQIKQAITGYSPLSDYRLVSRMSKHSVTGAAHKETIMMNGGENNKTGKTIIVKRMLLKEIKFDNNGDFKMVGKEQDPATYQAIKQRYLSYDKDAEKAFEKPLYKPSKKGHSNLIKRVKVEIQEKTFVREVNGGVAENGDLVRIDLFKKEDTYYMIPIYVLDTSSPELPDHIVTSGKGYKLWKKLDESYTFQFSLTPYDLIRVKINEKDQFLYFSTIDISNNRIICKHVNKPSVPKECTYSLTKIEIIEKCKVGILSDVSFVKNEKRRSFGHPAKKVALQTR

The subject of data set [3] is T3, LPG10136 (Bacillus endophyticus).
T3 sequence: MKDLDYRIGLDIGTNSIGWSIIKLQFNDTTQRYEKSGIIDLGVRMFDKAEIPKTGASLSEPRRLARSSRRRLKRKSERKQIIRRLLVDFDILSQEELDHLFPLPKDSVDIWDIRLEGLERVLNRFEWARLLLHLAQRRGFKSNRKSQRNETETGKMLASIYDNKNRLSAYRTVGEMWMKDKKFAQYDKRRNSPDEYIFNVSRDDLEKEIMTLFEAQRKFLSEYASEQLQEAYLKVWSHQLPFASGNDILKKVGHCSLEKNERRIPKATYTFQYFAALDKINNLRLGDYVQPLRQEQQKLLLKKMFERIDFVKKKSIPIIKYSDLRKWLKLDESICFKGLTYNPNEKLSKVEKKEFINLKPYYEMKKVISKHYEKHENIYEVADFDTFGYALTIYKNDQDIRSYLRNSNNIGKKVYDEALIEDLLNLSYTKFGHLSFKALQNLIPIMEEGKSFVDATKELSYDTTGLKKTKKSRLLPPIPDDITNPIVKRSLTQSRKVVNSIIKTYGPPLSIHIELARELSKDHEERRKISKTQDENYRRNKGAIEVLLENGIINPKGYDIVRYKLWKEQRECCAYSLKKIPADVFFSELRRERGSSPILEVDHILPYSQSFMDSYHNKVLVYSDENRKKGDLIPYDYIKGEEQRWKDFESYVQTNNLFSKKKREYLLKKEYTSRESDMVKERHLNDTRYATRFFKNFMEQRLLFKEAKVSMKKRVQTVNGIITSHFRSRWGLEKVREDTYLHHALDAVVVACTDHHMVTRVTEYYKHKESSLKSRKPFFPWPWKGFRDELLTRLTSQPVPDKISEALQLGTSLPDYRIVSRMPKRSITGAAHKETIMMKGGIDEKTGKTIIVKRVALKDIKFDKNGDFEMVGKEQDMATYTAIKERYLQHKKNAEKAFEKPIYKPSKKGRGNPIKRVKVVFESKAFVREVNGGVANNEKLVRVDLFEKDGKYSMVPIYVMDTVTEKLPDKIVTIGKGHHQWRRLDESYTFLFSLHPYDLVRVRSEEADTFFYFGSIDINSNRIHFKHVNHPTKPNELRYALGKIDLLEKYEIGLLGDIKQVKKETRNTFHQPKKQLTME
The following applies: PAM NNNNCC.

“GCUGAGAAUUAGCAUCCUUCAAAGGAAGAAGCUAAUUCUCAGUAAGUACAGCAAUUAAUAGCUGUAUCUGAAUGCUAAGCGGUUAGCCGCAGGGGAGAGCUUCGGCUCUCCCCGUUCUUUU / GATATAGACGTTGTGGCTGTTGTAGTGAGTAACC / GGTTACTCACTACAACAGCCACAACGTCTATATC [LPG10146 sgRNA L2 ; Library 2 target GAGTAACC]”: in data set [1], the activity (% target strand cleaved) was found to be 57.7.

Regarding “GUCAUAGUCCCAUCAUAUCCAUUGCAAAGGCAAUGGAUAUGAUGUUUCUAUGAUAAGGGCUCUCUAAGAGAGACCUGUGGCGUUGGGGAUCGCCUGCCCGUUUCGACGGGUGUCUCCCCAUUU / GATATAGACGTTGTGGCTGTTGTAGTAGGAATTC / GAATTCCTACTACAACAGCCACAACGTCTATATC [LPG10138 sgRNA L2 ; Library 2 target AGGAATTC]”, the activity (% target strand cleaved) in data set [2] (PAM context AGGAATTC) came to 0.

In the case of “GUCAUAGUUCCACUAAAGCCAUUAAAGAAUGGCUUUGAUGUUUCUAUGAUAAGGGUUUCGACCCGUGGCGUUGGGGAUCGCCUGCCCAUUUCGAUGGGCGUCUCCCCAUUU / GATATAGACGTTGTGGCTGTTGTAGTAGGACCTC / GAGGTCCTACTACAACAGCCACAACGTCTATATC [LPG10136 sgRNA L2 ; Library 2 target AGGACCTC]”, the activity (% target strand cleaved) in data set [3] (37C 120 min) came to 30.9.

In turn, “GCUGAGAAUUAGCAUCCUUCAAAGGAAGAAGCUAAUUCUCAGUAAGUACAGCAAUUAAUAGCUGUAUCUGAAUGCUAAGCGGUUAGCCGCAGGGGAGAGCUUCGGCUCUCCCCGUUCUUUU / GGACAGCAGCTTCCTATATCTCGTACGGATAACC / GGTTATCCGTACGAGATATAGGAAGCTGCTGTCC [LPG10146 sgRNA L1 ; Library 1 target GGATAACC]” returned an activity (% target strand cleaved) in data set [1] of 0.

Sequence “GCUGAGAAUUAGCAUCCUUCAAAGGAAGAAGCUAAUUCUCAGUAAGUACAGCAAUUAAUAGCUGUAUCUGAAUGCUAAGCGGUUAGCCGCAGGGGAGAGCUUCGGCUCUCCCCGUUCUUUU / GATATAGACGTTGTGGCTGTTGTAGTAGGAAACC / GGTTTCCTACTACAACAGCCACAACGTCTATATC [LPG10146 sgRNA L2 ; Library 2 target AGGAAACC]” had an activity (% target strand cleaved) in data set [1] of 48.9.

With “GUCAUAGUUCCACUAAAGCCAUUAAAGAAUGGCUUUGAUGUUUCUAUGAUAAGGGUUUCGACCCGUGGCGUUGGGGAUCGCCUGCCCAUUUCGAUGGGCGUCUCCCCAUUU / GGACAGCAGCTTCCTATATCTCGTACAGGACCTC / GAGGTCCTGTACGAGATATAGGAAGCTGCTGTCC [LPG10136 sgRNA L1 ; Library 1 target AGGACCTC]”, in data set [3] (37C 120 min), the activity (% target strand cleaved) came out at 5.

Take “GUCAUAGUUCCACUAAAGCCAUUAAAGAAUGGCUUUGAUGUUUCUAUGAUAAGGGUUUCGACCCGUGGCGUUGGGGAUCGCCUGCCCAUUUCGAUGGGCGUCUCCCCAUUU / GATATAGACGTTGTGGCTGTTGTAGTAGGACTTC / GAAGTCCTACTACAACAGCCACAACGTCTATATC [LPG10136 sgRNA L2 ; Library 2 target AGGACTTC]”: the activity (% target strand cleaved) in data set [3] (suboptimal PAM context) came to 11.3.

Turning to “GUCAUAGUCCCAUCAUAUCCAUUGCAAAGGCAAUGGAUAUGAUGUUUCUAUGAUAAGGGCUCUCUAAGAGAGACCUGUGGCGUUGGGGAUCGCCUGCCCGUUUCGACGGGUGUCUCCCCAUUU / GGACAGCAGCTTCCTATATCTCGTACAGGACTTC / GAAGTCCTGTACGAGATATAGGAAGCTGCTGTCC [LPG10138 sgRNA L1 ; Library 1 target AGGACTTC]”, the activity (% target strand cleaved) in data set [2] (PAM SEQ ID 75) is 5.5.

Consider “GUCAUAGUCCCAUCAUAUCCAUUGCAAAGGCAAUGGAUAUGAUGUUUCUAUGAUAAGGGCUCUCUAAGAGAGACCUGUGGCGUUGGGGAUCGCCUGCCCGUUUCGACGGGUGUCUCCCCAUUU / GATATAGACGTTGTGGCTGTTGTAGTAGGACTTC / GAAGTCCTACTACAACAGCCACAACGTCTATATC [LPG10138 sgRNA L2 ; Library 2 target AGGACTTC]”, for which, in data set [2] (PAM SEQ ID 75), the activity (% target strand cleaved) came out at 18.
